This is an account of results in US12102661B2.

The first assay concerns the target Angioensin Converting Enzyme (ACE).
Regarding “Over 10 kDa concentrated solution of ginkgo protein hydrolysate (pool or library)”, the ACE inhibitory activity (%) turned out to be 56.2%.

“Ultrafiltrate below 3 kDa of ginkgo protein hydrolysate (pool or library)”: the ACE inhibitory activity (%) came out at 85.3%.

Turning to “Ultrafiltrate of 3-10 kDa of ginkgo protein hydrolysate (pool or library)”, the ACE inhibitory activity (%) came out at 72%.

The next assay has the same target. This is another data set of the same source.
“AS1.398 neutral protease hydrolysate of ginkgo protein (pool or library)” came in with an Inhibitory activity of hydrolysate (%) of 87.4%.

With “Alcalase hydrolysate of ginkgo protein (pool or library)”, the Inhibitory activity of hydrolysate (%) came to 80.4%.

On to “papain hydrolysate of ginkgo protein (pool or library)”, for which the Inhibitory activity of hydrolysate (%) was 73.2%.

As for “trypsin hydrolysate of ginkgo protein (pool or library)”, the Inhibitory activity of hydrolysate (%) came to 61.3%.
